From patent US20100266586A1 come the findings set out here.

The target of test [1] is FVIII in a pool of normal human plasma (human), P00451. Nature of the test: cell-based or functional assay.
The target of test [2] is full length recombinant FVIII (Recombinate, Baxter), P00451. Nature of the test: cell-based or functional assay.
full length recombinant FVIII (Recombinate, Baxter), P00451, sequence (P00451 20-2351): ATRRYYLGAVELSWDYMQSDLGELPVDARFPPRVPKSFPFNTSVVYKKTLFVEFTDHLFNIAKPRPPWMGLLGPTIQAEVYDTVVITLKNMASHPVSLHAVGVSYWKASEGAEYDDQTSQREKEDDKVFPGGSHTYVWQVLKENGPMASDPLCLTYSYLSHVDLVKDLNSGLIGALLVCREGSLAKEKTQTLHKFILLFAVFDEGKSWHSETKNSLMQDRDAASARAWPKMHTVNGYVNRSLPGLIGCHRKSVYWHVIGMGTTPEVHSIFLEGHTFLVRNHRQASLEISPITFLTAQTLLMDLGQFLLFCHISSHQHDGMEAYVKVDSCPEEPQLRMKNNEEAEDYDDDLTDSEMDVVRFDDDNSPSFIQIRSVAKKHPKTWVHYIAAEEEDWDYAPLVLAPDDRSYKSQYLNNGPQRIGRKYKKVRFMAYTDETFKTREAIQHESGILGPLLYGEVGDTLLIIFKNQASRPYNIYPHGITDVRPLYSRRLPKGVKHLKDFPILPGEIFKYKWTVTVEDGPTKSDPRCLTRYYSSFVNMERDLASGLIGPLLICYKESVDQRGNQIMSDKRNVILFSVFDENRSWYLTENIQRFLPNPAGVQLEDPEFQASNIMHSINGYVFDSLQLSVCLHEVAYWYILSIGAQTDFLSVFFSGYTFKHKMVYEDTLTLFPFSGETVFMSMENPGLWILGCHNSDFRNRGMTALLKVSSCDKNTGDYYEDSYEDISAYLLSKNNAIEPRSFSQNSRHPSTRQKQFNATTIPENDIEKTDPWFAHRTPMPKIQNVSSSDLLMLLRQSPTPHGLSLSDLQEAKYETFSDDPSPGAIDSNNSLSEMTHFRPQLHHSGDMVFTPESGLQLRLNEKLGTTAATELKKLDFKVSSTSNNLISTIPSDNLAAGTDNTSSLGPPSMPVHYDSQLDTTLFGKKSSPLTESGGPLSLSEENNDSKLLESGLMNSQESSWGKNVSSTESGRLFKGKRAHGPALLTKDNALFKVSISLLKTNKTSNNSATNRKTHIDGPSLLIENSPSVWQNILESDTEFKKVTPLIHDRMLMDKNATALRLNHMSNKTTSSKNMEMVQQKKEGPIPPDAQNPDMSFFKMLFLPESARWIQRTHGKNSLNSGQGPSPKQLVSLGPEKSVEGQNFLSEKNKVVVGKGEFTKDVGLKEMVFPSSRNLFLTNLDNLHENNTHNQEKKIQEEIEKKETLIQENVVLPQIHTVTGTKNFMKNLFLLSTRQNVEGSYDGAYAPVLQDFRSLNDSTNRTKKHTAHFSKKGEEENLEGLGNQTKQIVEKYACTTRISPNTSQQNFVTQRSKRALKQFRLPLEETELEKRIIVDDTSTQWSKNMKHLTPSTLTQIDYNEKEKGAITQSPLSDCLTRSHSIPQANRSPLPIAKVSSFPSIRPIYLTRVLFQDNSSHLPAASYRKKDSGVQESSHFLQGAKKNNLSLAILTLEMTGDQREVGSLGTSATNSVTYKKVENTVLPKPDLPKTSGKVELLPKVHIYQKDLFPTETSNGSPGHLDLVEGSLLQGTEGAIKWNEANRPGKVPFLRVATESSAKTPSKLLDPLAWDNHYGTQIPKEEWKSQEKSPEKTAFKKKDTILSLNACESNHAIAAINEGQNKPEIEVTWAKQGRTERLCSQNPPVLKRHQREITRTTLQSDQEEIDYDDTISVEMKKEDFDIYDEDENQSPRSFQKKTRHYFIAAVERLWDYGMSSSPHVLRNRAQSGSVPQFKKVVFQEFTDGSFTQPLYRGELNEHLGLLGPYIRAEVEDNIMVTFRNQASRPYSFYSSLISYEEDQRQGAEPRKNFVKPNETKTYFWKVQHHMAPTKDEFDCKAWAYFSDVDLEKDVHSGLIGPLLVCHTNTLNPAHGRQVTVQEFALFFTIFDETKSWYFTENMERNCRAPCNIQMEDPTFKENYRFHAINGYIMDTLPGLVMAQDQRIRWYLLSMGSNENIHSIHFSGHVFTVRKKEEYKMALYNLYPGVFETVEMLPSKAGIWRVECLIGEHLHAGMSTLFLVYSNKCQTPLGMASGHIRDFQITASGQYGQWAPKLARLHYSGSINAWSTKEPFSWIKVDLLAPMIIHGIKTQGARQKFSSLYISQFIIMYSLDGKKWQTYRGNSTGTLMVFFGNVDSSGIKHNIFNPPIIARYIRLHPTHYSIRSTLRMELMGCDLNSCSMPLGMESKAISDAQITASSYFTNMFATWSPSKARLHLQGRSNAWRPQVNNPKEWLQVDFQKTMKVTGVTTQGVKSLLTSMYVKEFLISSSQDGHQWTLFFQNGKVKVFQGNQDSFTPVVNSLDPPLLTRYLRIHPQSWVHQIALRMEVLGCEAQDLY

FVIII in a pool of normal human plasma (human), P00451, sequence (P00451 20-2351): as above

B1: Krix-1 (human monoclonal antibody KRIX-1 produced in a human lymphoblastoid cell line, native glycosylation) (antibody, human IgG4, V domains shown)
VH: QVQLVQSGAEVKKPGASVKVSCKTSGYNFTGYSASGHIFTAYSVHWVRQAPGQGLEWMGRINPNSGATDYAHKFQGRVTMSRDTSISTAYMELSRLTSDDTAMYYCARADNYFDIVTGYTSHYFDYWGRGTLVTVSSASTKGPSVF
VL: EIVLTQSPGTLSLSPGERATLSCRASQSVASAYLAWYQQKPGQAPRLLIYGASSRATDIPHRFSGSGSGTDFTLTISRLEPEDFAVYYCQQYGTSALLTFGGGTKVEIKRTVAAPSVFIFPPS
modifications: here or on the partner: N-linked glycosylation site at Asn47-Thr49, native glycan as made by the lymphoblastoid cell line
In test [1], B1 registered an inhibition of FVIII activity (chromogenic assay, normal human plasma) of 90% and a maximal inhibition of FVIII activity (Bethesda assay, chromogenic FVIII assay) of 90%.

B2: deglycosylated KRIX-1 (Krix-1 treated with N-glycosidase-F) (antibody, IgG4, V domains shown)
VH: QVQLVQSGAEVKKPGASVKVSCKTSGYNFTGYSASGHIFTAYSVHWVRQAPGQGLEWMGRINPNSGATDYAHKFQGRVTMSRDTSISTAYMELSRLTSDDTAMYYCARADNYFDIVTGYTSHYFDYWGRGTLVTVSSASTKGPSVF
VL: EIVLTQSPGTLSLSPGERATLSCRASQSVASAYLAWYQQKPGQAPRLLIYGASSRATDIPHRFSGSGSGTDFTLTISRLEPEDFAVYYCQQYGTSALLTFGGGTKVEIKRTVAAPSVFIFPPS
modifications: here or on the partner: N-linked glycan removed by N-glycosidase-F (2 U/ml, 72 h, 37 C)
For the molecule B2, in test [1], the inhibition of FVIII activity (chromogenic assay, normal human plasma) amounted to 50% and the maximal inhibition (plateau inhibition) of FVIII activity (Bethesda assay, chromogenic FVIII assay) is 50%.

B3: RHD5 (human monoclonal antibody from the lymphoblastoid cell line RHD5) (antibody, V domains shown)
VH: QVQLVQSGAEVKKPGSSVMVSCKASGGTFSSFGISWVRQAPGQGLEWVGGIIPIFGTANTARNFQNRVTITADEFTSTAYIRLRSLRSEDTAVYYCVGGRDAYSFDGFDVWGQGTMVTVSSASTKGPSVFP
VL: SSGLTQPHSVSVSPGQTANITCSRDKLGHKFASWYQQKPGQSPALLIYQDSKRPSGIPERFSGSNSGNTATLTISGTQAMDEADYYCQAWDNTTAVFGGGTKLTVLSQPKAAPSVTLFPPS
For the molecule B3, in test [1], the inhibition of FVIII activity at a final concentration of RHD5 of 100 microgram/ml (Bethesda assay, plasma) was found to be 97%. Moreover, the inhibition of FVIII activity at a final concentration of RHD5 of 100 microgram/ml (Bethesda assay, full length recombinant FVIII) in test [2] amounted to 98%.
